Experimental data reported in publication doi:10.1101/2021.11.26.470043.

Molecular target: ACE-2 receptor on the surface of Vero-E6 cells (African green monkey (endogenous in Vero-E6))
Test: flow cytometry on cells

commercially available recombinant RBD (from UniProt P0DTC2) (domain or fragment)
percent of cells bound to RBD: 78%

recombinant SARS-CoV-2 RBD (Pro330-Ser530) expressed in Sf9 insect cells (from UniProt P0DTC2 330-530) (domain or fragment)
percent of cells bound to RBD: 60%
